This is an account of results in the supplement of paper PMC9170038.

For this data set, the system named is MS2 coat protein. The data set can be described thus: apparent KD of MS2 coat protein; higher = weaker reporter binding. The settings on record: Eterna round: R107. The essentials: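 Illumina sequencing clusters were used for on-chip transcription of designed RNA switches. Titration with SNAP-549-labelled MS2 coat protein followed, in twofold steps from 0.7 or 1.5 nM to 3 µM in 100 mM Tris-HCl pH 7.5, 80 mM KCl, 4 mM MgCl2, without or with constant ligand. Apparent KD is each design's median of fits to normalised cluster binding curves.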

Where [1] appears, read: input ligand: theophylline 20 uM.
The mark [2] stands for this setting: input ligand: tryptophan 2.4 mM.
Where [3] appears, read: input ligand: theophylline 2 mM.

Consider “AGCGAGAUCCGUGAUACCAGCUACAUGAGGAUCACCCAUGUGAGCGCGAAAGUGCUGUGUAGCCCUUGGCAGCACAGUGGAUCUC [#29 Exclusion-TheophyllineB]”, for which the “apparent KD of MS2 coat protein” value turned out to be 8.84 nM (input ligand: arginine 13.2 mM), 14.6 nM under setting [1] and 11.3 nM under setting [2].
Taken in the same sequence, the figures for “AGACAUGUAAGAUAAAUGACUUAUACAGAUACCAGACUAGUCAAUGUCCCUUGGCAGCUGCAUAACAUGAGGAUCACCCAUGUAA [JR_ExcTheophyA_Sub009]” were 20.6 nM, 27.5 nM and 24.4 nM.
Regarding “ACGAAACAAGCGGCCGCCACUUCGUGGUGCUAAGGCUUGAUACUACAUGAGGAUCACCCAUGUCGAAGGACCGGGCUUGCGACUG [theeternabot_sameState_MS2_Trp_B_33]”, the “apparent KD of MS2 coat protein” value (input ligand: arginine 13.2 mM) was 43.4 nM, the “apparent KD of MS2 coat protein” value under setting [1] came to 80 nM and the “apparent KD of MS2 coat protein” value under setting [3] is 60 nM.
Turning to “CAUGGGCUAAGACAUUAUUCGUAUUUUGAUACCAGAAAAUUGGCGUUCCCUUGGCAGCAAUAUACAUGAGGAUCACCCAUGUCCC [theeternabot_exclusion_MS2_Theo_A_23]”, the “apparent KD of MS2 coat protein” value reads like this: (input ligand: arginine 13.2 mM) 38.8 nM; under setting [1], 70.9 nM; under setting [2], 58.3 nM.
Taken in the same sequence, the figures for “AUUUAUUGUCGUGAUACCAGACAUACAUGAGGAUCACCCAUGUUAAGUAACAUUUUUUAGGUCCCUUGGCAGCACUUUUUAAUUA [JR_Nu_SSTheophyB_Sub018]” were 30.2 nM, 36.1 nM and 25.4 nM.
Turning to “ACCUGUACGAAAAGUGCAGGACAUGGAAAUCGAGGACCGGUACGGCCGCCACUCGUAUAAAACAAGUGGAUCACCCUUGUCCAUG [TrypAS 2 #AlternativeMS2 #Zipper #StaticStem]”, the “apparent KD of MS2 coat protein” value came out at 320 nM (input ligand: arginine 13.2 mM); 773 nM (input ligand: none); 960 nM under setting [1]; 1500 nM under setting [3]; 1360 nM under setting [2].
For “AAAUAUAACUCGGCCGCCACUGACAUGAGGAUCACCCAUGUUAUAUUUUAUACAUGAGGAUCACCCAGGACCGGGAGAAUAUAAA [Jonah 1]”, the “apparent KD of MS2 coat protein” value runs as follows: (input ligand: arginine 13.2 mM) 61.7 nM; (input ligand: none) 940 nM; under setting [1], 484 nM; under setting [3], 696 nM; under setting [2], 1590 nM.
With “ACCAGCACACAUGAUACCAGCGACAUGAGGAUCACCCAUGUACGGCGUGUAUCGAAAGGUUGCCCUUGGCAGCAUGAUAGUGCUA [Ratiarla]”, the “apparent KD of MS2 coat protein” value (input ligand: arginine 13.2 mM) was 14.5 nM, the “apparent KD of MS2 coat protein” value under setting [1] turned out to be 28.2 nM and the “apparent KD of MS2 coat protein” value under setting [2] came out at 12.8 nM.
In the same order, the values of “ACGAACGAUAGUGAUACCAGACGUACAUGAGGAUCACCCAUGUUAUACACAUGGUUUAUUGUCCCUUGGCAGCACGUUAAGUUCG [JR_ExcTheophyB_Sub005]” are 98.5 nM, 274 nM and 289 nM.
For “AUAUUAAUCGGAAGGAGCGGUACAUGAGGAUCACCCAUGUGCUAAGCUAGCAGAUCCCGUUACCAGGUAGGUCGCCGAGUUAUGA [Titeonra]”, the “apparent KD of MS2 coat protein” value came out at 35.6 nM (input ligand: arginine 13.2 mM); 24 nM (input ligand: none); 30.9 nM under setting [1]; 29.5 nM under setting [3]; 23.4 nM under setting [2].
Taken in the same sequence, the figures for “GGCACCAGGAGAAGGAGCGUGAAGACAUGAGGAUCACCCAUGUAGAGGCCCGUACAGGGUUCGCAGGUAGGUCGCUCCUGGUGCC [#1 Same State - Arginine B Attempt #12 (HarryS)]” were 19.3 nM, 18.4 nM, 27.3 nM, 22.6 nM and 18.8 nM.
With “AGAGUCUAGUCGGCCGCCACUCAUGUCCAAAGGACAUGAGGAUCACCCAUGUACCAAUGGUACAUGAGGACCGGGACUGGACUCA [Omei Tryp B SS C v2]”, the “apparent KD of MS2 coat protein” value reads like this: (input ligand: arginine 13.2 mM) 227 nM; under setting [1], 343 nM; under setting [3], 120 nM.
In the same order, the values of “CACGAAAGAUCGGCCGCCACUCAUGUUUCUUACAUGAGGAUCACCCAUGUAUUUUCUUUCUUUUAGAGGACCGGGAUCGAGCGUG [#01 Same State - Tryptophan B]” are 46.8 nM, 78.4 nM and 47.2 nM.
In the same order, the values of “UAAUAAGUACCGGUUCUCAGAUCCUCAUGUCGAGGACCGGUACGGCCGCCACUCGAAACAUGAGGAUCACCCAUGUAAUAAUAAU [#07 Exclusion Tryptophan A]” are 23.5 nM, 67.1 nM and 54.5 nM.
For “UUUGGCGGCGAUCUGGGUUUACCAGAUCGGCGAGGACCGGUACGGCCGCCACUCGUGUUUCUUUGACAUGAGGAUCACCCAUGUA [whbob_SS_trypto A_f3]”, the “apparent KD of MS2 coat protein” value is, setting by setting: (input ligand: arginine 13.2 mM) 34.9 nM; under setting [1], 74.6 nM; under setting [3], 102 nM.
For “AAGAAGUUUUGAUUUUUAUGAAGUAGUGAUACCAGUUAAGAAAGAGACCCUUGGCAGCGCAACAUGAGGAUCACCCAUGUAAGAA [Another radom design]”, the “apparent KD of MS2 coat protein” value by setting is: (input ligand: arginine 13.2 mM) 18.9 nM; (input ligand: none) 17.3 nM; under setting [1], 21.1 nM; under setting [3], 19.7 nM; under setting [2], 21.9 nM.
In the same order, the values of “CAGGCCUUGCCCGGUGUUCCGAAAGUGGAAGGAGCGCACAUUGGUGCAGGUAGGUCGCCACAUGAGGAUCACCCAUGUCUAGGCC [Aveatti]” are 54.9 nM, 20 nM, 111 nM, 22.5 nM and 50.2 nM.
For “AAAUAAUCUAGUCCACAAUGUGACUCAGAUACCAGUGCAAAGCUACACCCUUGGCAGCUGGUUACAUGAGGAUCACCCAUGUCGU [theeternabot_exclusion_MS2_Theo_A_50]”, the “apparent KD of MS2 coat protein” value was 34.3 nM (input ligand: arginine 13.2 mM), 51.9 nM under setting [1] and 46.9 nM under setting [2].
With “CUAUAAGUACCGGUCCUCAGAUCCUCAUGACGAGGACCGGUACGGCCGCCACUCGAAACAUGAGGAUCACCCAUGUAAUAACAUU [Brourdmod22]”, the “apparent KD of MS2 coat protein” value (input ligand: arginine 13.2 mM) stood at 18.5 nM, the “apparent KD of MS2 coat protein” value under setting [1] stood at 30.1 nM and the “apparent KD of MS2 coat protein” value under setting [3] turned out to be 24.9 nM.
Taken in the same sequence, the figures for “AGCGUGCAUAGGAAAACUAUGUACGCAAAUCGAGGACCGGUACGGCCGCCACUCGUCCUCAACAUGAGGAUCACCCAUGUAAUAA [Mat - Exclusion - Trytophan A - D9]” were 18.9 nM, 26.7 nM and 22.5 nM.
“UGUAUGUGAUCUGAUACCAGCUAAUAAGCUUGAGGAUCACCCAAGUGGAGCGGAAACGCAGGCCCUUGGCAGCAGAUCGCAUACU [Denovo 9 #StaticStem #AlternativeMS2]”: the “apparent KD of MS2 coat protein” value is, setting by setting: (input ligand: arginine 13.2 mM) 54.6 nM; (input ligand: none) 76.4 nM; under setting [1], 34.4 nM; under setting [3], 11.7 nM; under setting [2], 70.7 nM.
In the same order, the values of “GCACGACAUGAGGAUCACCCAUGUGCAGAUACCAGUAAUGUAUAUUACCCUUGGCAGCUGAGUAGGUCUGGAGGGCUAUAGGUAA [Same State Theophylline A GF11]” are 11.6 nM, 12.3 nM, 20.6 nM, 15.4 nM and 14.6 nM.
As to “AGGUACGAAAACGUGGGUGAGUCGUACCAACGAGGACCGGUACGGCCGCCACUCGAAUAAACAUGAGGAUCACCCAUGUAAUAAU [T''-M-T'-T-MS2 - Design 6]”, the “apparent KD of MS2 coat protein” value was 25 nM (input ligand: arginine 13.2 mM), 58.3 nM under setting [1] and 66.5 nM under setting [3].
Consider “GGUGGCUGGAUCGAUACCAGCCACCACCGAUAGACCACAUGAGGAUCACCCAUGUUGGGUGGCCCUUGGCAGCGGUCCAGCUGCC [#1 Same State - Theophylline B Attempt #5 (HarryS)]”, for which the “apparent KD of MS2 coat protein” value is 78.8 nM (input ligand: arginine 13.2 mM); 587 nM (input ligand: none); 1010 nM under setting [1]; 1240 nM under setting [3]; 851 nM under setting [2].
Consider “GCUGUACCAUGAAGGAGCGUCGUUGAUUGAGAAUACACAUGAGGAUCACCCAUGUUUUUAUGACAGGUAGGUCGCAUGGUACAGC [SSAB #16]”, for which the “apparent KD of MS2 coat protein” value is, setting by setting: (input ligand: arginine 13.2 mM) 13.8 nM; (input ligand: none) 12.9 nM; under setting [1], 25.1 nM; under setting [3], 18.9 nM; under setting [2], 12.1 nM.
For “UCACGAGGCCUGGAUACCAGCGACAUGAGGAUCACCCAUGUAUGAGGAUCAGCCAUGUUAUGCCCUUGGCAGCCACGAAGGUCAU [XZZMULLIN]”, the “apparent KD of MS2 coat protein” value was determined as 14.5 nM (input ligand: arginine 13.2 mM), 26.5 nM under setting [1] and 15.8 nM under setting [2].
With “GUGGGUUUGCGAAGGAGCGGGUAUGUUUUCUACUGGAUCCUAACAUGAGGAUCACCCAUGUCCCAGGUAGGUCGCGCGGGCUUGG [12.Z]”, the “apparent KD of MS2 coat protein” value (input ligand: arginine 13.2 mM) was determined as 49.7 nM; the “apparent KD of MS2 coat protein” value (input ligand: none) worked out at 215 nM; the “apparent KD of MS2 coat protein” value under setting [1] was 81.9 nM; the “apparent KD of MS2 coat protein” value under setting [3] was 209 nM; the “apparent KD of MS2 coat protein” value under setting [2] is 56.8 nM.
For “GCUACAUGAGGAUCACCCAUGUAUGCGAGCCGAGGACCGGUACGGCCGCCACUCGCUUAACAUGAGGAUCACCCAUGUUGCUCGC [SSTA DOUBLE!!! :-D #18]”, the “apparent KD of MS2 coat protein” value is, setting by setting: (input ligand: arginine 13.2 mM) 19.7 nM; under setting [1], 36.2 nM; under setting [3], 28.1 nM.
For the sequence “CCAUGCGUAGGAAGGAGCGCAUACUUCACAUGAGGAUCACCCAUGUCGAGACGUGAGUCAGUGCAGGUAGGUCGCCUACGCAUGG [Same State - Arginine B (Freestyle 27)]”, the “apparent KD of MS2 coat protein” value worked out at 16.6 nM (input ligand: arginine 13.2 mM); 17.6 nM (input ligand: none); 24.3 nM under setting [1]; 20.6 nM under setting [3]; 19.4 nM under setting [2].
For “AUUUAUGGUCGUGAUACCAGACAUACAUGAGGAUCACCCAUGUGAAAUAACAUAAUUUAGGUCCCUUGGCAGCACUUUUUAAUUA [JR_Nu_SSTheophyB_Sub020]”, the “apparent KD of MS2 coat protein” value reads like this: (input ligand: arginine 13.2 mM) 43.9 nM; under setting [1], 63.6 nM; under setting [2], 52.4 nM.
On to “UGGUAUGUAGGAAGGAGCGCAUACUUCACAUGAGGAUCACCCAUGUCGAGACGUGAGUCAGUGCAGGUAGGUCGCCUAGUUAUGA [Same State - Arginine B (Freestyle 22)]”, for which the “apparent KD of MS2 coat protein” value runs as follows: (input ligand: arginine 13.2 mM) 35.8 nM; (input ligand: none) 43 nM; under setting [1], 33.4 nM; under setting [3], 28.1 nM; under setting [2], 29 nM.
For “UAUUAUCAGUCGGCCGCCACUGACACAUGAGGAUCACCCAUGUAAUUUGGGUUAUAUAGAAAAUACAGGACCGGGACUAAGGCUA [JR_ExcTryptoB_Sub014]”, the “apparent KD of MS2 coat protein” value was 87.5 nM (input ligand: arginine 13.2 mM), 324 nM under setting [1] and 326 nM under setting [3].
Consider “AUACAUGAGGAUCACCCAUGUAUAGUUGAAGGAGCGACCAGAGGGUCAGGUAGGUCGCAGCACAUGAGGAUCACCCAUGUAUUUU [#1 Exclusion - Arginine A Attempt #14 (Inspired by Pi)]”, for which the “apparent KD of MS2 coat protein” value is, setting by setting: (input ligand: arginine 13.2 mM) 32.6 nM; (input ligand: none) 38 nM; under setting [1], 40.3 nM; under setting [3], 35.1 nM; under setting [2], 27.3 nM.
As to “UGGUACAUGGCGGCCGCCACUUCACGUAAAAUAAAAGCUUGAGGAUCACCCAAGUAAUAAGUUGGGAGGACCGGGUCAUGUACCU”, the “apparent KD of MS2 coat protein” value is, setting by setting: (input ligand: arginine 13.2 mM) 19.2 nM; (input ligand: none) 19.8 nM; under setting [1], 27 nM; under setting [3], 24.7 nM; under setting [2], 16.6 nM.
